Substitutions are numbered along the chain they refer to.
B1: MYT1588 (antibody, V domains shown)
VH: QVQLVQSGAEVVKPGASVKISCKASGYTFTGYFMNWVKQSPGQSLEWIGRIHPYDGDTFYNQKFQGKATLTVDKSSNTAHMELLSLTSEDFAVYYCTRYDGSRAMDYWGQGTTVTVSS
VL: DIVLTQSPLSLAVSLGQPAIISCKASQSVSFAGTSLMHWYHQKPGQQPRLLIYRASNLEAGVPDRFSGSGSKTDFTLTISPVEAEDAATYYCQQSREYPHTFGGGTKLEIK
notes: IgG
B2: MYT1589 (antibody, V domains shown)
VH: B1 VH
VL: B1 VL with H100Y, T101H
notes: IgG
B3: MYT2225 (antibody, V domains shown)
VH: EVQLVESGGGLVQPGGSLRLSCAASHFNIRTQSIHWVRQAPGKGLEWIGDIFPIDGITDYADSVKGRFTISADTSKNTAYLQMNSLRAEDTAVYYCARGSWSWPSGMDYYLDYWGQGTLVTVSS
VL: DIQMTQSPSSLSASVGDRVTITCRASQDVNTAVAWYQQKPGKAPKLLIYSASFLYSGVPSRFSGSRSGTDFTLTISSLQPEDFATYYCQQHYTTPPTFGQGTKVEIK
notes: IgG
B4: MYT2226 (antibody, V domains shown)
VH: B3 VH with H26G, F27H
VL: not shown
notes: IgG
B5: MYT2227 (antibody, V domains shown)
VH: B3 VH with H26G, N28H
VL: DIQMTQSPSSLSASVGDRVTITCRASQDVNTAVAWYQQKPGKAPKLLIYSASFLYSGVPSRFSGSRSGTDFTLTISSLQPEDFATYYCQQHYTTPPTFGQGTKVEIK
notes: IgG
B6: MYT2228 (antibody, V domains shown)
VH: B3 VH with H26G, I29H
VL: not shown
notes: IgG
B7: MYT2229 (antibody, V domains shown)
VH: B3 VH with H26G, R30H
VL: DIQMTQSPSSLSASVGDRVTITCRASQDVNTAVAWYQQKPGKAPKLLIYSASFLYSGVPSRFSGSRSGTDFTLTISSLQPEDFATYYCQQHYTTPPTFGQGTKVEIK
notes: IgG
B8: MYT2230 (antibody, V domains shown)
VH: B3 VH with H26G, T31H
VL: not shown
notes: IgG
B9: MYT2231 (antibody, V domains shown)
VH: B3 VH with H26G, Q32H
VL: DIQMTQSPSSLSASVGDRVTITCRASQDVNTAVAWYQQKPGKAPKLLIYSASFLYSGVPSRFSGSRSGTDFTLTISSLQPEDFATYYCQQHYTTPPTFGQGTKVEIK
notes: IgG
B10: MYT2232 (antibody, V domains shown)
VH: B3 VH with H26G, S33H
VL: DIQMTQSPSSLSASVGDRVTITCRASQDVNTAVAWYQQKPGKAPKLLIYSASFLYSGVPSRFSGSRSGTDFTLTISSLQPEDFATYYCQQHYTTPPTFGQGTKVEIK
notes: IgG
B11: MYT2233 (antibody, V domains shown)
VH: B3 VH with H26G, I34H
VL: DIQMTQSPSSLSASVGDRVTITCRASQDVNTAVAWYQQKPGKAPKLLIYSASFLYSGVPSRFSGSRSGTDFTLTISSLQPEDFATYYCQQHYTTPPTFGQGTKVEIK
notes: IgG
B12: MYT2234 (antibody, V domains shown)
VH: B3 VH with H26G, H35A
VL: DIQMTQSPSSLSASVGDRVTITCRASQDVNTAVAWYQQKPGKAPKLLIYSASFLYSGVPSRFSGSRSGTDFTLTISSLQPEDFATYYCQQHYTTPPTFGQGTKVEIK
notes: IgG
B13: MYT2235 (antibody, V domains shown)
VH: B3 VH with H26G, D50H
VL: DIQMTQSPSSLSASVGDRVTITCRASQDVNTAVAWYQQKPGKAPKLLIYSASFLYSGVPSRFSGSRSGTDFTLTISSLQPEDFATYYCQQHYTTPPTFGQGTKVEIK
notes: IgG
B14: MYT2236 (antibody, V domains shown)
VH: B3 VH with H26G, I51H
VL: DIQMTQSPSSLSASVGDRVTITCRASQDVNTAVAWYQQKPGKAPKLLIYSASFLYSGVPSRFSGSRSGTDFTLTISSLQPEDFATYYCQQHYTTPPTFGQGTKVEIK
notes: IgG
B15: MYT2237 (antibody, V domains shown)
VH: B3 VH with H26G, F52H
VL: not shown
notes: IgG
B16: MYT2238 (antibody, V domains shown)
VH: B3 VH with H26G, P53H
VL: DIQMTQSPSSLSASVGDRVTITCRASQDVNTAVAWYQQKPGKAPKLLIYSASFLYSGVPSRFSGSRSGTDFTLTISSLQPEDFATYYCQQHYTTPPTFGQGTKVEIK
notes: IgG
B17: MYT2239 (antibody, V domains shown)
VH: B3 VH with H26G, I54H
VL: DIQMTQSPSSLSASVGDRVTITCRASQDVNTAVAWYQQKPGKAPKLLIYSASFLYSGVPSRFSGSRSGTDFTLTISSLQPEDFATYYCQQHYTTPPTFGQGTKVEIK
notes: IgG
B18: MYT2240 (antibody, V domains shown)
VH: B3 VH with H26G, D55H
VL: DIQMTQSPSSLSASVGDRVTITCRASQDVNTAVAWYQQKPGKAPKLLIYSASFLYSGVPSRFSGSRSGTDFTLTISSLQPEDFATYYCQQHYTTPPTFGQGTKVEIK
notes: IgG
B19: MYT2241 (antibody, V domains shown)
VH: B3 VH with H26G, G56H
VL: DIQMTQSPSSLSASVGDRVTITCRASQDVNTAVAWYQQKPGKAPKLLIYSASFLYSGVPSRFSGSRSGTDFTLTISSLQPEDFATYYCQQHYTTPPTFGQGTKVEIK
notes: IgG
B20: MYT2242 (antibody, V domains shown)
VH: B3 VH with H26G, I57H
VL: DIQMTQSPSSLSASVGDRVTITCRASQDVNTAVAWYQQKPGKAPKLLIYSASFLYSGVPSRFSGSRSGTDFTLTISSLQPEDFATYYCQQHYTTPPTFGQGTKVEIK
notes: IgG
B21: MYT2243 (antibody, V domains shown)
VH: B3 VH with H26G, T58H
VL: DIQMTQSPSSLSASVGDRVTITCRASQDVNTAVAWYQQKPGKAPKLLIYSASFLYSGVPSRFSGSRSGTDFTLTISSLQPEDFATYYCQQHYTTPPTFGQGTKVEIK
notes: IgG
B22: MYT2245 (antibody, V domains shown)
VH: B3 VH with H26G, Y60H
VL: not shown
notes: IgG
B23: MYT2246 (antibody, V domains shown)
VH: B3 VH with H26G, A61H
VL: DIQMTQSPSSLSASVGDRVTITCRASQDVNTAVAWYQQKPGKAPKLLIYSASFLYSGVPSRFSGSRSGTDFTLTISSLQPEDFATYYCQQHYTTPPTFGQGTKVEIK
notes: IgG
B24: MYT2247 (antibody, V domains shown)
VH: B3 VH with H26G, D62H
VL: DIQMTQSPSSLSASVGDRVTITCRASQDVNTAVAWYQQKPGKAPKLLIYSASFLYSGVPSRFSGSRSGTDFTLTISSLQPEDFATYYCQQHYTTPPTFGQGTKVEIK
notes: IgG
B25: MYT2248 (antibody, V domains shown)
VH: B3 VH with H26G, S63H
VL: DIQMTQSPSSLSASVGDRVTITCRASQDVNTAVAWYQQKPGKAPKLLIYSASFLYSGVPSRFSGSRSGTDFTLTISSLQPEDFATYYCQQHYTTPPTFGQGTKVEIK
notes: IgG
B26: MYT2249 (antibody, V domains shown)
VH: B3 VH with H26G, V64H
VL: not shown
notes: IgG
B27: MYT2250 (antibody, V domains shown)
VH: B3 VH with H26G, K65H
VL: not shown
notes: IgG
B28: MYT2251 (antibody, V domains shown)
VH: B3 VH with H26G, G66H
VL: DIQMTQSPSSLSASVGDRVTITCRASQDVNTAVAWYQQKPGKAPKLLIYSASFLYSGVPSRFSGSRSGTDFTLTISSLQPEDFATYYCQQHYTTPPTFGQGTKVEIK
notes: IgG
B29: MYT2253 (antibody, V domains shown)
VH: B3 VH with H26G, R98H
VL: not shown
notes: IgG
B30: MYT2255 (antibody, V domains shown)
VH: B3 VH with H26G, S100H
VL: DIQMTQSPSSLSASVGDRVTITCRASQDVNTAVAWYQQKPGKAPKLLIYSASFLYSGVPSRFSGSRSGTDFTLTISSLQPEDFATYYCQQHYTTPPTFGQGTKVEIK
notes: IgG
B31: MYT2256 (antibody, V domains shown)
VH: B3 VH with H26G, W101H
VL: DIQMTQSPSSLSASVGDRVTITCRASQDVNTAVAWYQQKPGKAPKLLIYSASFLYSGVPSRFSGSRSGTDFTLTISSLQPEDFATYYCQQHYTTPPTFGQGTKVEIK
notes: IgG
B32: MYT2257 (antibody, V domains shown)
VH: B3 VH with H26G, S102H
VL: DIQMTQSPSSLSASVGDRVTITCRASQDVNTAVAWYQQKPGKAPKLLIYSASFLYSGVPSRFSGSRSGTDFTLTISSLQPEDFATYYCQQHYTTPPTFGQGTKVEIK
notes: IgG
B33: MYT2258 (antibody, V domains shown)
VH: B3 VH with H26G, W103H
VL: not shown
notes: IgG
B34: MYT2260 (antibody, V domains shown)
VH: B3 VH with H26G, S105H
VL: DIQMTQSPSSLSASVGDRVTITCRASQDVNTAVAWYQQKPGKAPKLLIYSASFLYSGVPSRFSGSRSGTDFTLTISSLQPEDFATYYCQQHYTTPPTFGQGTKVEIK
notes: IgG
B35: MYT2262 (antibody, V domains shown)
VH: B3 VH with H26G, M107H
VL: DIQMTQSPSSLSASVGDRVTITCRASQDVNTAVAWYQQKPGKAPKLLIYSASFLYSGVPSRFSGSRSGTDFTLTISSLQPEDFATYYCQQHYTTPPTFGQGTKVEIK
notes: IgG
B36: MYT2263 (antibody, V domains shown)
VH: B3 VH with H26G, D108H
VL: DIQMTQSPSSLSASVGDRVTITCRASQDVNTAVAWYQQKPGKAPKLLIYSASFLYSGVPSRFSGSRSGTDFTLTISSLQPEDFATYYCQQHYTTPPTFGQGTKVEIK
notes: IgG
B37: MYT2264 (antibody, V domains shown)
VH: B3 VH with H26G, Y109H
VL: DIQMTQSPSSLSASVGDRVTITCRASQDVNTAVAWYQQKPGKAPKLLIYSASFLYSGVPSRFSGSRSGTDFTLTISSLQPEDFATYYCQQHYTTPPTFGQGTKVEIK
notes: IgG
B38: MYT2265 (antibody, V domains shown)
VH: B3 VH with H26G, Y110H
VL: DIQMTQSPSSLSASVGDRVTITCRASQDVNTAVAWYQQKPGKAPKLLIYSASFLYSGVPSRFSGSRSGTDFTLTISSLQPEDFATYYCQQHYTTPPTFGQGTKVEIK
notes: IgG
B39: MYT2266 (antibody, V domains shown)
VH: B3 VH with H26G, L111H
VL: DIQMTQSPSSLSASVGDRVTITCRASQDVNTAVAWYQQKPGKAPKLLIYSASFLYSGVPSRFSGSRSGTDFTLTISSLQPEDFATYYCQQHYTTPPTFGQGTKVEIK
notes: IgG
B40: MYT2267 (antibody, V domains shown)
VH: B3 VH with H26G, D112H
VL: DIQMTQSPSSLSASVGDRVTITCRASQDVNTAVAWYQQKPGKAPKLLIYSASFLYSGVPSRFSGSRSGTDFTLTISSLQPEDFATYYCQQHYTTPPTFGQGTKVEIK
notes: IgG
B41: MYT2268 (antibody, V domains shown)
VH: B3 VH with H26G, Y113H
VL: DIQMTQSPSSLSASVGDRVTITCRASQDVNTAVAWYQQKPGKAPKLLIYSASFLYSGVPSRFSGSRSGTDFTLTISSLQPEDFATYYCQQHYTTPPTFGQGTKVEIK
notes: IgG
B42: MYT4493 (antibody, V domains shown)
VH: B3 VH with H26G
VL: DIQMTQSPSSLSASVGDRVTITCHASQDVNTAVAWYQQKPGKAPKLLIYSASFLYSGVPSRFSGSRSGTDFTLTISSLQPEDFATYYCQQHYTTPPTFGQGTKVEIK
notes: IgG
B43: MYT4494 (antibody, V domains shown)
VH: B3 VH with H26G
VL: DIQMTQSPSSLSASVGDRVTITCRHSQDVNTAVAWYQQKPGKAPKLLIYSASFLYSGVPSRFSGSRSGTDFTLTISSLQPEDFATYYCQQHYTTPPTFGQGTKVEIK
notes: IgG
B44: MYT4495 (antibody, V domains shown)
VH: B3 VH with H26G
VL: not shown
notes: IgG
B45: MYT4496 (antibody, V domains shown)
VH: B3 VH with H26G
VL: not shown
notes: IgG
B46: MYT4497 (antibody, V domains shown)
VH: B3 VH with H26G
VL: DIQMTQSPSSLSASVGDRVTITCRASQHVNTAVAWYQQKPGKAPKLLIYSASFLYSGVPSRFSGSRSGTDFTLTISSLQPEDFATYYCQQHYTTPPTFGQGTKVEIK
notes: IgG
B47: MYT4498 (antibody, V domains shown)
VH: B3 VH with H26G
VL: not shown
notes: IgG
B48: MYT4499 (antibody, V domains shown)
VH: B3 VH with H26G
VL: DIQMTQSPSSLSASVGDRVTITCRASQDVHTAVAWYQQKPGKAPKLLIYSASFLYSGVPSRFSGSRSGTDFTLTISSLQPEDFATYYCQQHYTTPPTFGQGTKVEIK
notes: IgG
B49: MYT4500 (antibody, V domains shown)
VH: B3 VH with H26G
VL: not shown
notes: IgG
B50: MYT4502 (antibody, V domains shown)
VH: B3 VH with H26G
VL: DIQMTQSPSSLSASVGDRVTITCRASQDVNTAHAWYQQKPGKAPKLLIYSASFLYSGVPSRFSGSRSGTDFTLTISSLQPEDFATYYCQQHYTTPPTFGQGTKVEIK
notes: IgG
B51: MYT4504 (antibody, V domains shown)
VH: B3 VH with H26G
VL: not shown
notes: IgG
B52: MYT4506 (antibody, V domains shown)
VH: B3 VH with H26G
VL: not shown
notes: IgG
B53: MYT4507 (antibody, V domains shown)
VH: B3 VH with H26G
VL: not shown
notes: IgG
B54: MYT4508 (antibody, V domains shown)
VH: B3 VH with H26G
VL: not shown
notes: IgG
B55: MYT4509 (antibody, V domains shown)
VH: B3 VH with H26G
VL: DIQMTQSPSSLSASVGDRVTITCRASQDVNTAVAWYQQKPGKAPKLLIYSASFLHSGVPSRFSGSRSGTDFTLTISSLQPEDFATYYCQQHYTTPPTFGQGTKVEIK
notes: IgG
B56: MYT4510 (antibody, V domains shown)
VH: B3 VH with H26G
VL: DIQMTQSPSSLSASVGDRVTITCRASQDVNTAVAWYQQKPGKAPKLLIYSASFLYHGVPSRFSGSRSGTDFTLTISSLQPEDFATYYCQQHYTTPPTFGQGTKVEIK
notes: IgG
B57: MYT4511 (antibody, V domains shown)
VH: B3 VH with H26G
VL: not shown
notes: IgG

The binders below were run against T1, FOLR1 (R&D Systems, Cat #5646-FR) (human, UniProt P15328 25-233) (assay: BLI, IgG on anti-human Fc sensor, 50 nM FOLR1).
T1 construct: Bought soluble protein; also called Folate Receptor 1
T1 sequence (P15328 25-233 limits assumed): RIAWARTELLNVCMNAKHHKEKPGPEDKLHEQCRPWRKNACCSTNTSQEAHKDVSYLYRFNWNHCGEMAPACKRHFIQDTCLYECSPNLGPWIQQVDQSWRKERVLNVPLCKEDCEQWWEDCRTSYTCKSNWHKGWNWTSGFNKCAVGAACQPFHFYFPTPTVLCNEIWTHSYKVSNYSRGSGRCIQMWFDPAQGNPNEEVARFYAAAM

Binding result, binds:
B1, B2, B3, B4, B5, B6, B7, B8, B9, B10, B11, B12, B13, B14, B15, B16, B17, B18, B19, B20, B21, B22, B23, B24, B25, B26, B27, B28, B29, B30, B31, B32, B33, B34, B35, B36, B37, B38, B39, B40, B41, B42, B43, B44, B45, B46, B47, B48, B49, B50, B51, B52, B53, B54, B55, B56, B57

Reference: US20220298260A1 (MYTHIC THERAPEUTICS, published 2022)
